{
  "source": "paper PMC6526119",
  "origin": "cited, not measured here",
  "target": "Hsp90 (Saccharomyces cerevisiae) (UniProt P02829)",
  "data": [
    {"substance": "Hsp90 (from UniProt P02829)", "values": [
      {"measurement": "Kd", "value": 0.06, "unit": "µM"}
    ]}
  ]
}
